Values of other authors as cited in PMC2928749.

Target: hHR23B Ubl (Homo sapiens) (UniProt P54727)
Sequence (P54727 1-79): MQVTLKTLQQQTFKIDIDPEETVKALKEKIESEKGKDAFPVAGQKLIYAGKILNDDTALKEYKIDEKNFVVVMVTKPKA

Chain of Ataxin-3 Josephin (P54252 1-183): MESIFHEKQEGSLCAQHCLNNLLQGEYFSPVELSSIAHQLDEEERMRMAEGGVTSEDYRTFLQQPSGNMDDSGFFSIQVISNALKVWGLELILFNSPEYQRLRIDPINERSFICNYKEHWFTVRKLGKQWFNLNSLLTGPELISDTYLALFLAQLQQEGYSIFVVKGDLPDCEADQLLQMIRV

## Ataxin-3 Josephin (from UniProt P54252)
  Kd: 12 µM
